This series concerns the molecule itself. The series is described as follows: native gel or EMSA.

B1: recombinant porcine ficolin α with C-terminal V5 and 6 x His tags (natural protein)
chain: not shown
In the case of B1, the binding result was “binds”.

For the origin of these results see PMC7172368 (Antiviral Research, 2007).
